For this assay, the target named is T1, human vascular endothelial growth factor receptor-2 Fc chimera (KDR-Fc) (human, UniProt P35968 20-764).
T1 construct: range 1-764; also called human VEGFR-2; VEGF-R2-Fc; not shown: human IgG1 Fc
Nature of the assay: radioactive equilibrium binding, 1 nM KDR-Fc. The method, then: To prepare ³⁵S-labeled binding proteins for analysis, mRNA was prepared as described above for RNA-protein fusion production but the linker ligation step was omitted. The mRNA was expressed using rabbit reticulocyte lysate translation kit (Ambion) in the presence of ³⁵S-labeled Met at 30° C. for 1 hour. Expressed protein was purified on M2-agarose Flag beads (Sigma) as described above. This procedure produced the encoded protein without the nucleic acid tail. In a direct binding assay, VEGF-R2-Fc fusions in concentrations ranging from 0 to 200 nM were added to a constant concentration of the purified protein (0.2 or 0.5 nM) and incubated at 30° C. for 1 hour in buffer B. The receptor-binder complexes were captured using Protein A magnetic beads for another 10 minutes at room temperature using a Kingfisher™ The beads were washed with six reaction volumes of buffer B. The protein was eluted from the beads with 100 μL of 0.1 M KOH. […] of the reaction mixture and elution were dried onto a LumaPlate-96 (Packard) and the amount of ³⁵S on the plate was measured using a TopCount NXT instrument (Packard). The amount of fibronectin-based scaffold protein bound to the target was estimated as a percent of radioactivity eluted from Protein A magnetic beads compare to radioactivity in the reaction mixture. Nonspecific binding of fibronectin-based scaffold proteins to the beads was determined by measuring binding in the absence of KDR-Fc and represented less than 1-2% of the input. Specific binding was obtained through subtraction of nonspecific binding from total binding. Data was analyzed using the GraphPad Prizm software (GraphPad Software, Inc, San Diego, Calif.), fitted using a one site, non-linear binding equation.

T1 sequence (P35968 20-764 limits assumed, change not shown, form in doubt): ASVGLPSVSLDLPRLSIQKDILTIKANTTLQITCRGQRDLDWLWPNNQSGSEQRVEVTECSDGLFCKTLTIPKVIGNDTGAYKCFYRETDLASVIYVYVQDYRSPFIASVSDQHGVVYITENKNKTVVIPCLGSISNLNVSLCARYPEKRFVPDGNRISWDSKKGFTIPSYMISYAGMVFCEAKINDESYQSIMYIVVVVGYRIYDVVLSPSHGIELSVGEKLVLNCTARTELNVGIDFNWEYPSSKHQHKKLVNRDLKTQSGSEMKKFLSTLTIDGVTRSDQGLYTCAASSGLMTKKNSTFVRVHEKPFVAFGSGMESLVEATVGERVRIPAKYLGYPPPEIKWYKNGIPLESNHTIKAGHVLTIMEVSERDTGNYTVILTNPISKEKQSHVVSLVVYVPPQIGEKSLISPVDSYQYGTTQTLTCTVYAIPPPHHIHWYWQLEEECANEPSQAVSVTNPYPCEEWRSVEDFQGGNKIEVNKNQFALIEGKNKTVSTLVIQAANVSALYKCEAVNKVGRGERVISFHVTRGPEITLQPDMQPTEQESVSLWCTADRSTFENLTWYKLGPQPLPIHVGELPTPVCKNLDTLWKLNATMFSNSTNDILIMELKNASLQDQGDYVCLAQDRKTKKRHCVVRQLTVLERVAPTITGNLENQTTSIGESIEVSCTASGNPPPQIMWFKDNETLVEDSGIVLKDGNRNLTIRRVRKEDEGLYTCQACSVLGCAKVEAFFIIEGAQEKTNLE

B1: 1′DelAl PR4 (designed binder)
chain: EVVAATPTSLLISWRHPHFPTRYYRITYGETGGNSPVQEFTVPLQPPTATISGLKPGVDYTITGYAVTVAQNDHELLTPISINYRT
notes: Del 1-8
For the molecule B1, the “Binding to 1 nM KDR, %” value amounted to 14%.

B2: 1′DelF3 PR4 (designed binder)
chain: EVVAATPTSLLISWRHPHFPTRYYRITYGETGGNSPVQEFTVPLQPPTATISGLKPGVDYTITGYAVTMAQNDHKLFTPISINYRT
notes: Del 1-8
On to B2, for which the “Binding to 1 nM KDR, %” value was 16%.

B3: 2′Del B3 PR4 (designed binder)
chain: EVVAATPTSLLISWRHPHFPTRYYRITYGETGGNSPVQEFTVPLQPPTATISGLKPGVDYTITGYAVTDAPNGRELMVPISINYRT
notes: Del 1-8
For the molecule B3, the “Binding to 1 nM KDR, %” value worked out at 17%.

B4: 2′Del C8 PR4 (designed binder)
chain: EVVAATPTSLLISWRHPHFPTRYYRITYGETGGNSPVQEFTVPLQPPTATISGLKPGVDYTITGYAVTTAHNGHELLTPISINYRT
notes: Del 1-8
Consider B4, for which the “Binding to 1 nM KDR, %” value amounted to 15%.

B5: 2′Del E5 PR4 (designed binder)
chain: EVVAATPTSLLISWRHPHFPTRYYRITYGETGGNSPVQEFTVPLQPPTATISGLKPGVDYTITGYAVTEGLNDHELIIPISINYRT
notes: Del 1-8
In the case of B5, the “Binding to 1 nM KDR, %” value is 19%.

B6: 1′DelD5 PR4 (designed binder)
chain: EVVAATPTSLLISWRHPHFPTRYYRITYGETGGNSPVQEFTVPLQPPTATISGLKPGVDYTITGYAVTVGQNHHELFTPISINYRT
notes: Del 1-8
Consider B6, for which the “Binding to 1 nM KDR, %” value was 17%.

B7: 2′Del B4 PR4 (designed binder)
chain: EVVAATPTSLLISWRHPHFPTRYYRITYGETGGNSPVQEFTVPLQPPTATISGLKPGVDYTITGYAVTSGHNGHEVMTPISINYRT
notes: Del 1-8
Turning to B7, the “Binding to 1 nM KDR, %” value is 31%.

B8: 2′Del D10 PR4 (designed binder)
chain: EVVAATPTSLLISWRHPHFPTRYYRITYGETGGNSPVQEFTVPLQPPTATISGLKPGVDYTITGYAVTLADNARELLTPISINYRT
notes: Del 1-8
On to B8, for which the “Binding to 1 nM KDR, %” value stood at 34%.

B9: 2′Del C6 PR4 (designed binder)
chain: EVVAATPTSLLISWRHPHFPTRYYRITYGETGGNSPVQEFTVPLQPPTATISGLKPGVDYTITGYAVTMGFMAHELMVPISINYRT
notes: Del 1-8
For the molecule B9, the “Binding to 1 nM KDR, %” value was found to be 34%.

B10: 1′DelD1 PR4 (designed binder)
chain: EVVAATPTSLLISWRHPHFPTRYYRITYGETGGNSPVQEFTVPLQPPTATISGLKPGVDYTITGYAVTVTQNDHELLTPISINYRT
notes: Del 1-8
Turning to B10, the “Binding to 1 nM KDR, %” value is 16%.

B11: 2′Del C11 PR4 (designed binder)
chain: EVVAATPTSLLISWRHPHFPTRYYRITYGETGGNSPVQEFTVPLQPPTATISGLKPGVDYTITGYAVTAGLNEHELLIPISINYRT
notes: Del 1-8
B11: the “Binding to 1 nM KDR, %” value is 34%.

B12: 1′DelE2 PR4 (designed binder)
chain: EVVAATPTSLLISWRHPHFPTRYYRITYGETGGNSPVQEFTVPLQPPTATISGLKPGVDYTITGYAVTVGQNDHELLTPISINYRT
notes: Del 1-8
Consider B12, for which the “Binding to 1 nM KDR, %” value came to 16%.

B13: 2′Del B5 PR4 (designed binder)
chain: EVVAATPTSLLISWRHPHFPTRYYRITYGETGGNSPVQEFTVPLQPPTATISGLKPGVDYTITGYAVTAGRHDHELIIPISINYRT
notes: Del 1-8
For B13, the “Binding to 1 nM KDR, %” value worked out at 33%.

B14: 1′DelH5 PR4 (designed binder)
chain: EVVAATPTSLLISWRHPHFPTRYYRITYGETGGNSPVQEFTVPLQPPTATISGLKPGVDYTITGYAVTVAQNDRELFTPISINYRT
notes: Del 1-8
As to B14, the “Binding to 1 nM KDR, %” value was found to be 17%.

B15: 2′Del D1 PR4 (designed binder)
chain: EVVAATPTSLLISWRHPHFPTRYYRITYGETGGNSPVQEFTVPLQPPTATISGLKPGVDYTITGYAVTLEQNDRVLLTPISINYRT
notes: Del 1-8
With B15, the “Binding to 1 nM KDR, %” value is 28%.

B16: 1′DelE7 PR4 (designed binder)
chain: EVVAATPTSLLISWRHPHFPTRYYRITYGETGGNSPVQEFTVPLQPPTATISGLKPGVDYTITGYAVTVAQNGHELFTPISINYRT
notes: Del 1-8
For the molecule B16, the “Binding to 1 nM KDR, %” value is 22%.

B17: 1′Del G10 PR4 (designed binder)
chain: EVVAATPTSLLISWRHPHFPTRYYRITYGETGGNSPVQEFTVPLQPPTATISGLKPGVDYTITGYAVTMAQNGHKLMTPISINYRT
notes: Del 1-8
Turning to B17, the “Binding to 1 nM KDR, %” value is 36%.

B18: 1′DelA2 PR4 (designed binder)
chain: EVVAATPTSLLISWRHPHFPTRYYRITYGETGGNSPVQEFTVPLQPPTATISGLKPGVDYTITGYAVTVAQNGHQLFTPISINYRT
notes: Del 1-8
For B18, the “Binding to 1 nM KDR, %” value worked out at 23%.

B19: 2′Del E6 PR4 (designed binder)
chain: EVVAATPTSLLISWRHPHFPTRYYRITYGETGGNSPVQEFTVPLQPPTATISGLKPGVDYTITGYAVTMGKNGHELLTPISINYRT
notes: Del 1-8
Consider B19, for which the “Binding to 1 nM KDR, %” value was determined as 43%.

B20: 2′Del F7 PR4 (designed binder)
chain: EVVAATPTSLLISWRHPHFPTRYYRITYGETGGNSPVQEFTVPLQPPTATISGLKPGVDYTITGYAVTLGLRDRELFVPISINYRT
notes: Del 1-8
In the case of B20, the “Binding to 1 nM KDR, %” value turned out to be 38%.

B21: 1′DelD2 PR4 (designed binder)
chain: EVVAATPTSLLISWRHPHFPTRYYRITYGETGGNSPVQEFTVPLQPPTATISGLKPGVDYTITGYAVTVAKNDHELLTPISINYRT
notes: Del 1-8
For B21, the “Binding to 1 nM KDR, %” value was determined as 17%.

B22: 2′Del D5 PR4 (designed binder)
chain: EVVAATPTSLLISWRHPHFPTRYYRITYGETGGNSPVQEFTVPLQPPTATISGLKPGVDYTITGYAVTVAWNDHMLMTPISINYRT
notes: Del 1-8
On to B22, for which the “Binding to 1 nM KDR, %” value amounted to 18%.

B23: 2′Del F5 PR4 (designed binder)
chain: EVVAATPTSLLISWRHPHFPTRYYRITYGETGGNSPVQEFTVPLQPPTATISGLKPGVDYTITGYAVTLVHNDRELLTPISINYRT
notes: Del 1-8
In the case of B23, the “Binding to 1 nM KDR, %” value came out at 22%.

B24: 2′Del D3 PR4 (designed binder)
chain: EVVAATPTSLLISWRHPHFPTRYYRITYGETGGNSPVQEFTVPLQPPTATISGLKPGVDYTITGYAVTSGLNDRVLFIPISINYRT
notes: Del 1-8
In the case of B24, the “Binding to 1 nM KDR, %” value came out at 38%.

B25: 1′DelH10 PR4 (designed binder)
chain: EVVAATPTSLLISWRHPHFPTRYYRITYGETGGNSPVQEFTVPLQPPTATISGLKPGVDYTITGYAVTFAQNDHELLTPISINYRT
notes: Del 1-8
On to B25, for which the “Binding to 1 nM KDR, %” value was found to be 17%.

B26: 2′Del A11 PR4 (designed binder)
chain: EVVAATPTSLLISWRHPHFPTRYYRITYGETGGNSPVQEFTVPLQPPTATISGLKPGVDYTITGYAVTEDIRVLWLNTTISINYRT
notes: Del 1-8
For the molecule B26, the “Binding to 1 nM KDR, %” value amounted to 16%.

B27: 2′Del C5 PR4 (designed binder)
chain: EVVAATPTSLLISWRHPHFPTRYYRITYGETGGNSPVQEFTVPLQPPTATISGLKPGVDYTITGYAVTPGHNDHELMVPISINYRT
notes: Del 1-8
For the molecule B27, the “Binding to 1 nM KDR, %” value came out at 26%.

B28: 2′Del B2 PR4 (designed binder)
chain: EVVAATPTSLLISWRHPHFPTRYYRITYGETGGNSPVQEFTVPLQPPTATISGLKPGVDYTITGYAVTTGWNGNELFTPISINYRT
notes: Del 1-8
As to B28, the “Binding to 1 nM KDR, %” value worked out at 29%.

B29: 1′DelH12 PR4 (designed binder)
chain: EVVAATPTSLLISWRHPHFPTRYYRITYGETGGNSPVQEFTVPLQPPTATISGLKPGVDYTITGYAVTVAQNERELFTPISINYRT
notes: Del 1-8
As to B29, the “Binding to 1 nM KDR, %” value was found to be 18%.

B30: 2′Del F1 PR4 (designed binder)
chain: EVVAATPTSLLISWRHPHFPTRYYRITYGETGGNSPVQEFTVPLQPPTATISGLKPGVDYTITGYAVTRDQYEHELLTPISINYRT
notes: Del 1-8
Regarding B30, the “Binding to 1 nM KDR, %” value stood at 20%.

B31: 2′Del E3 PR4 (designed binder)
chain: EVVAATPTSLLISWRHPHFPTRYYRITYGETGGNSPVQEFTVPLQPPTATISGLKPGVDYTITGYAVTLGPYEHELLTPISINYRT
notes: Del 1-8
For B31, the “Binding to 1 nM KDR, %” value came to 33%.

B32: 2′Del A2 PR4 (designed binder)
chain: EVVAATPTSLLISWRHPHFPTRYYRITYGETGGNSPVQEFTVPLQPPTATISGLKPGVDYTITGYAVTGGRNGHTLLTPISINYRT
notes: Del 1-8
For the molecule B32, the “Binding to 1 nM KDR, %” value was 17%.

B33: 1′DelE6 PR4 (designed binder)
chain: EVVAATPTSLLISWRHPHFPTRYYRITYGETGGNSPVQEFTVPLQPPTATISGLKPGVDYTITGYAVTLAQNDRELLTPISINYRT
notes: Del 1-8
For the molecule B33, the “Binding to 1 nM KDR, %” value came to 24%.

B34: 2′Del C1 PR4 (designed binder)
chain: EVVAATPTSLLISWRHPHFPTRYYRITYGETGGNSPVQEFTVPLQPPTATISGLKPGVDYTITGYAVTAGLDEHELLIPISINYRT
notes: Del 1-8
For the molecule B34, the “Binding to 1 nM KDR, %” value amounted to 32%.
